According to publication PMC6611371 (Research and Practice in Thrombosis and Haemostasis, 2019):

Assays:
Assay in all cases: SPR
[1] = target: FVIIaDV (Homo sapiens, UniProt P08709, point mutant)
[2] = target: FVIIaDQ (Homo sapiens, UniProt P08709, point mutant)
[3] = target: FVIIaVQ (Homo sapiens, UniProt P08709, point mutant)

Kd [1]: 1.1 nM
koff [1]: 0.00016 s⁻¹
Kd [2]: 1.9 nM
koff [2]: 0.00024 s⁻¹
Kd [3]: 130 nM
koff [3]: 0.0035 s⁻¹
B1: mAb4F5 (antibody, V domains shown)
VH: EVKLVESGGGLVQPGGSRKLSCAASGFTFSDYGMAWVRQAPGKGPEWIAFISNLSRIYYADTVTGRFTISRENDKNTLFLEMSSLRSEDSAIYYCTRDDGYYRVDYWGQGATLTVSS
VL: DIVMTQSHKFLSTSVGNRVSITCKASQDVGIGLVSWYQQKPGQSPKLLIHWASTRHTGVPDRFTGSGSGTDFTLTINNVQSEDLATYFCQQFSNYPLTFGSGTRLEIK
